# Target: Flag-PKM2 from the nuclear fraction of U87 cells (UniProt P14618)
# Test: SEC; Flag-PKM2 eluted with flag peptide in TBS (25 mM Tris, 150 mM NaCl, pH 7.2); Superdex 200 increase 10/300 GL, 4 °C, 0.5 mL/min; fractions analysed by western blot
# Chain of Flag-PKM2 from the nuclear fraction of U87 cells, P14618 1-531 (enzyme; other documents disagree on this pair) (P14618 whole entry): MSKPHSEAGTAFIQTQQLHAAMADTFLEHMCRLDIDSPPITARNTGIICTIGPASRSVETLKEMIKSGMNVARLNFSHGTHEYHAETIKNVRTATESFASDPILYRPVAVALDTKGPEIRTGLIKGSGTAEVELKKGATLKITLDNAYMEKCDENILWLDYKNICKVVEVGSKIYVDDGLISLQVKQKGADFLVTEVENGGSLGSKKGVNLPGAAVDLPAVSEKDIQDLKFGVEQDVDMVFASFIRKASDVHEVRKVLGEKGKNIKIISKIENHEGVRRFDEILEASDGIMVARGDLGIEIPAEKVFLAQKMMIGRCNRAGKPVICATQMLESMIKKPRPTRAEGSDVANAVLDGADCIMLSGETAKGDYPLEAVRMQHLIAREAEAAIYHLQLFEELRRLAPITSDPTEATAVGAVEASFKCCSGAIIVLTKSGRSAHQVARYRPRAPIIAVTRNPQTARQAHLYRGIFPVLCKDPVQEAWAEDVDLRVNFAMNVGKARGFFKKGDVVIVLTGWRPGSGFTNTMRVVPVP
substance,measurement,value
"Flag-PKM2 from the nuclear fraction of U87 cells, P14618 1-531 (enzyme; other documents disagree on this pair)",stoichiometry N,2
